Measured values reported in the supplement of paper PMC9170038.

Assays:
[1] = test system: MS2 coat protein; experiment: apparent KD of MS2 coat protein, switch ON state; designed switch direction (-1 OFF switch, 1 ON switch): 1; higher = weaker reporter binding; conditions: FMN input: 0 or 200 uM; Eterna round: R93 (includes R88 designs)
Outline: (§1)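 The designed RNA switches were transcribed on-chip from Illumina sequencing clusters. In 100 mM Tris-HCl pH 7.5, 80 mM KCl and 4 mM MgCl2, without or with constant ligand, they were titrated with SNAP-549-labelled MS2 coat protein from 0.7 or 1.5 nM to 3 µM in twofold steps. Apparent KD is the per-design median of normalised cluster binding-curve fits.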

[2] = test system: MS2 coat protein; experiment: apparent KD of MS2 coat protein, switch OFF state (with FMN for OFF switches, without FMN for ON switches); designed switch direction (-1 OFF switch, 1 ON switch): 1; higher = weaker reporter binding; conditions: FMN input: 0 or 200 uM; Eterna round: R93 (includes R88 designs)
Outline: as §1

| Sequence | apparent KD of MS2 coat protein [1] | apparent KD of MS2 coat protein [2] |
| --- | --- | --- |
| AAAGAAUGAAGGCAGGAUAUGUGAAAAAAAACAUGAGGAUCACCCAUGUAAUAAAUGGGUACAAAACAGAAGGGCCAAGAAAUAA [SS 2 Tesla 2] | 0.17 µM | 0.398 µM |
| AAAGAAUGAAGGCAGGAUAUGUGAAAAAAAACAUGAGGAUCACCCAUGUAAUAGAUGGUGAAAAGGCAGAAGGGCCAAGAAACAA [SS 2 Tesla 6] | 0.0124 µM | 0.199 µM |
| AAAGACAUGGUGUAGGAUAUAUUAAUAGUCACAUGAGGAUCACCCAUGUUCAUAUAUAUGAACGAGUAGAAGGACGAUGAAAAAA [SameState2 Malc#3] | 0.497 µM | 0.205 µM |
| AAAUAAAGGACUGAGGAUAUACCACAUGAAACAUGAGGAUCACCCAUGUAGAAAUACAAGCGGUGGUAGAAGGCAGUCCACAAAC [Same State 2.5i ( so lets mod hyphema)] | 0.0212 µM | 0.0204 µM |
| AAAUAAAUGACUAAGGAUAUAUCAGAAAAAACAUGAGGAUCACCCAUGUAAUAAUAAAAAGGGUGAUAGAAGGUAGUCAACAAAC [74%, More Paria 4] | 0.0256 µM | 0.118 µM |
| AAAUAACAUGAGGAUCACCCAUGUUGCAACGGUAGAGGAUAUGUGGGUGAAAAUAGCAUGGCAGAAGGCUAGUGUA [SameState1 Malc#28] | 0.172 µM | 0.11 µM |
| AAAUUACAUGAGGAUCACCCAUGUAACGACGUUACAGGAUAUGUGGGUGAAAAUAGCAUGACAGAAGGGUACCGUA [SameState1 Malc#38] | 0.0788 µM | 0.0284 µM |
| AACAAUCUAUCUGAGGAUAUGUGUCGAAAGACAUGAGGAUCACCCAUGUAAAAACAUGAAAAGAUACAGAAGGCAGAUAGAUUGA [SS2: 1156] | 0.0181 µM | 0.0293 µM |
| AACAAUCUAUCUGAGGAUAUGUGUCGAAAGACAUGAGGAUCACCCAUGUGAAAACAUGGAAAAACACAGAAGGCAGAUAGAUUGA [SS2: 1150] | 0.147 µM | 0.202 µM |
| AACGAACAUGAGGAUCACCCAUGUUCCAACAGUUGAGGAUAUGUGGGUGAAAAUAGCACGGCAGAAGGCGAGUGUA [SameState1 Malc#21] | 0.0702 µM | 0.0498 µM |
| AACGAACAUGAGGAUCACCCAUGUUCCAGCAGUUGAGGAUAUGUGGGUGAAAAUAGCACGGCAGAAGGCGAGUGUA [SameState1 Malc#22] | 0.0798 µM | 0.0821 µM |
| AACUAACAUGAGGAUCACCCAUGUUACAGCAGUUGAGGAUAUGUGGGUGAAAAUAGCACGGCAGAAGGCGAGUGUA [SameState1 Malc#23] | 0.237 µM | 0.15 µM |
| AAGAAACAUGAGGAUCACCCAUGUAAGAUAAACACAGGAUAUGCAAAAGAAAGAAAGAAAGCAGAAGGGUGAAGAA [Mat - Same State 1 - Tesla mod - 50] | 0.0157 µM | 0.0423 µM |
| AAGAAACAUGAGGAUCACCCAUGUAAGAUAAACACAGGAUAUGCGAAAAUAAACAAAUAAGCAGAAGGGUGAAGAA [Mat - Same State 1 - Tesla mod - 65] | 0.0195 µM | 0.0281 µM |
| AAGAAACAUGAGGAUCACCCAUGUAAGAUAAACACAGGAUAUGCGAAAGAAACAAAAGAAGCAGAAGGGUGAAGAA [Mat - Same State 1 - Tesla mod - D146] | 0.0171 µM | 0.0294 µM |
| AAGAAACAUGAGGAUCACCCAUGUACCCAAAAGGGAGGAUAUGCGAAAGAAAGAAAGAAAGCAGAAGGCCCAUGAA [Artaxerxes I Longhand] | 0.0139 µM | 0.0253 µM |
| AAGAAACAUGAGGAUCACCCAUGUAGAAAUAUGGGAGGAUAUACAAGGACGGAAGUCAAGGUAGAAGGCCUAAGAA [Mat - Same State 1 - Meechl mod - D133] | 0.0267 µM | 0.112 µM |
| AAGAAACAUGAGGAUCACCCAUGUAGAAAUAUGGGAGGAUAUACGAAGACGAAAGUCAAAGUAGAAGGCCUAAAGA [Mat - Same State 1 - Eli mod - D106] | 0.0203 µM | 0.0615 µM |
| AAGAAAGAAACAUAGGAUAUCAAGGAUAUAACAUGAGGAUCACCCAUGUAAAUACGAAAGUAUAAUGAGAAGGAUGGAUGAUCUAC [Meechl MS2 SS2 3] | 0.2 µM | 0.0795 µM |
| AAUAAAAAUAGUUAGGAUAUGAGAACUAGGACAUGAGGAUCACCCAUGUAACUAGAACAAGUAAAUCAGAAGGGACAGGGUGAAA [JR_SS002_Sub203] | 0.0419 µM | 0.019 µM |
| AAUAAGACUAGCAAGGAUAUCGAAAACGAGACAUGAGGAUCACCCAUGUAACAAGUAAAAGUAAACGAGAAGGUGCAGGGUGAAA [JR_SS002_Sub301] | 0.0569 µM | 0.08 µM |

| Sequence | apparent KD of MS2 coat protein [1] | apparent KD of MS2 coat protein [2] |
| --- | --- | --- |
| AAUAAUUAUAGCAAGGAUAUCGGUAUAAAGACAUGAGGAUCACCCAUGUAAUAUGGUUAAAUUUACGAGAAGGUGCAGGGUGAAA [JR_SS002_Sub009] | 0.17 µM | 0.142 µM |
| AAUAUACAUGAGGAUCACCCAUGUUAGGUGGGACUAGGAUAUCAAAAUAAAUAAUGAACAUGAGAAGGAGUAUCAA [JR_SS001_Sub402] | 0.13 µM | 0.19 µM |
| AAUAUACAUGAGGAUCACCCAUGUUAGGUGGGUCAAGGAUAUCAAUAUAAAUAAAAAACUUGAGAAGGUGAAUAAA [JR_SS001_Sub019] | 0.133 µM | 0.155 µM |
| AAUAUACAUGAGGAUCACCCAUGUUUUAAUAACUCAGGAUAUACAGGUGAAAACAGCAUAGUAGAAGGGAGAAAAA [SameState1 Malc#3] | 0.0182 µM | 0.0232 µM |
| AAUCCACAUGAGGAUCACCCAUGUCAGGAAAUGACAGGAUAUAGCGAAAAAAAAAAAAAGCUAGAAGGGUCUAAUU [SameState1-cac2] | 0.0313 µM | 0.107 µM |
| AAUUCCACUAGCAAGGAUAUCUAAAACGAAACAUGAGGAUCACCCAUGUGACGACCACACGUAUCAGAGAAGGUGCAGGGUGAAU [JR_SS002_Sub307] | 0.0205 µM | 0.0319 µM |
| AGAAAACAUGAGGAUCACCCAUGUAGAAAUAUGGGAGGAUAUACAAAGACGAAAGUCAAAGUAGAAGGCCUGAAGA [Mat - Same State 1 - JL mod - D92] | 0.0204 µM | 0.075 µM |
| AGAAAACAUGAGGAUCACCCAUGUAGGAAUAUGGGAGGAUAUACAAAGACGAAAGUCAGAGUAGAAGGCCUAAAAA [salish99-SS1-086] | 0.0175 µM | 0.0923 µM |
| AGAAAAGAAAGUAAGGAUAUGCAUAAUAAAACAUGAGGAUCACCCAUGUUAAAAAAAAGAUCAUGGUAGAAGGUACAAAAGAAAG [SS2 M 36] | 0.017 µM | 0.0123 µM |
| AGAAAUAAAAGACAGGAUAUCCAAAAGAAAACAUGAGGAUCACCCAUGUAAAGAAAAUAAAAAUGGGAGAAGGGUCAAAUAAAAA [Mat - Same State 2 - JL mod - D49] | 0.0344 µM | 0.0339 µM |
| AGAAAUAAAAGAGAGGAUAUCCAAAAGAAAACAUGAGGAUCACCCAUGUAAAAGAAAAUAAAAUGGGAGAAGGCUCACAUAAAGA [Topaz 34] | 0.0211 µM | 0.0374 µM |
| AGAAAUAAAAGAGAGGAUAUUCAAAAGAAAACAUGAGGAUCACCCAUGUAAAAGAAAAUAAAUGGGAAGAAGGCUCAAAAUAAAG [Modifying JL's highscorer - Moving the G segment - Variant 2] | 0.0248 µM | 0.0262 µM |
| AGAAAUAAAAGGGAGGAUAUUCAAAAAGGGACAUGAGGAUCACCCAUGUAAAAGAAAAUAAAAUGGGAGAAGGCUCAAAAUAAAG [80%, More Helter Skelter 2] | 1.13 µM | 0.748 µM |
| AGAAAUAAACCUCAGGAUAUGGGUAAAUAAACAUGAGGAUCACCCAUGUAAAAGAAAAUAAAAAACCAGAAGGGAGAAAAUAAGA [Designing denovo 1] | 0.0104 µM | 0.0241 µM |
| AGAAGACAUGAGGAUCACCCAUGUAGGAAUAUGGGAGGAUAUACAAAGACGAAAGUCAGAGUAGAAGGCCUAGGAA [salish99-SS1-090] | 0.0185 µM | 0.053 µM |
| AGAUCUAGAAGGUAGGAUAUGUGAAAAAAUACAUGAGGAUCACCCAUGUGAUGAAUAAAAAGAAAAUAGAAGGACCAUCUAGAUC [Cross swing 2] | 0.0165 µM | 0.0407 µM |
| AGGAAACAUGAGGAUCACCCAUGUAAAAAUAUGGGAGGAUAUACGAAAAAAAAAAAAAAAGUAGAAGGCCUAAAAG [Garnet 10] | 0.101 µM | 0.231 µM |
| AUAAAACAUGAGGAUCACCCAUGUAGAAAUAUGGGAGGAUAUACUAGAUCGAAAGAUCUAGUAGAAGGCCUCAAAG [JL Mod of Eli 2] | 0.0588 µM | 0.0589 µM |
| AUAAAACAUGAGGAUCACCCAUGUAGACAUAUGGGAGGAUAUACUAGAUCGAAAGAUCUAGUAGAAGGUCUUAAAA [JL Mod of Eli 10] | 0.205 µM | 0.183 µM |
| AUAAAACAUGAGGAUCACCCAUGUCAAGAGUAUUAAGGAUAUGAGCCAGGGAACUGGCGAUCAGAAGGUGAGACUC [Atxerexebe] | 0.16 µM | 0.0467 µM |
| AUAAAACAUGAGGAUCACCCAUGUCCGACAAAUCAAGGAUAUGAGAGCAAAACCAGGCUGUUAGAAGGUGAAAGAA [Atlausa] | 0.154 µM | 0.154 µM |
